Data published in patent US20120231011A1 (APEXIGEN, published 2012).
Residue numbers refer to the chain shown, from its start.

Columns and labels:
[1] = target: T1, IgG Fc-hVEGF-A (Human VEGF 165) fusion protein (rabbit; human, UniProt P15692-4 27-191); assay: competitive ELISA: antibody mixed with IgG Fc-hVEGF, added to plate-bound IgG Fc-VEGFR2 (KDR); bound VEGF detected (OD405) [FIG. 1]
T1 construct: Expressed in HEK 293-6E cells and purified on Protein A; not shown: rabbit IgG Fc

human VEGF [2] = target: T2, human VEGF (human, UniProt P15692-4 27-191, limits assumed); assay: SPR, BIAcore-3000, human VEGF on CM5 chip
T2 construct: The background describes VEGF as a homodimer
T2 sequence (P15692 other isoform, or with tags, fused parts or gaps limits assumed): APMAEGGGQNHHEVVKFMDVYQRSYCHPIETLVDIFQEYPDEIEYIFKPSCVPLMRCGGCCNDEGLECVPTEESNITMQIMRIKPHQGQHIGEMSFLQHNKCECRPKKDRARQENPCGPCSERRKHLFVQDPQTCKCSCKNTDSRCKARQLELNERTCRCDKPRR

human VEGF [3] = target: T2, human VEGF; assay: SPR, BIAcore-3000, human VEGF on CM5 chip; reference AVASTIN
human VEGF [4] = target: T2, human VEGF; assay: SPR, BIAcore-3000, human VEGF on CM5 chip, experiment 1
human VEGF [5] = target: T2, human VEGF; assay: SPR, BIAcore-3000, human VEGF on CM5 chip, experiment 2
[6] = target: T1, IgG Fc-hVEGF-A (Human VEGF 165) fusion …; assay: competitive ELISA: antibody premixed with IgG Fc-hVEGF, plate coated with IgG Fc-VEGFR2 (KDR)
human VEGF [7] = target: T2, human VEGF; assay: SPR, BIAcore-3000, human VEGF on CM5 chip, average of two experiments
[8] = target: T1, IgG Fc-hVEGF-A (Human VEGF 165) fusion …; assay: direct binding ELISA on plate-bound IgG Fc-hVEGF, detection with donkey anti-human IgG-AP (OD405) [FIG. 4]

T1 sequence (P15692 other isoform, or with tags, fused parts or gaps limits assumed): as above

B1: EPI0030 antibody (humanized rabbit anti-VEGF monoclonal antibody expressed by the HZD-V6 clone) (antibody, human IgG1, kappa, V domains shown)
VH: EVQLVESGGGLVKPGGSLRLSCAASGFSFSNNDVMCWVRQAPGKGLEWIGCIMTTDVVTEYANWAKSRFTVSRDSAKNSVYLQMNSLRAEDTAVYFCARDSVGSPLMSFDLWGPGTLVTVSS
VL: DIQMTQSPSSLSASVGDRVTINCQASQSIYNNNELSWYQQKPGKPPKLLIYRASTLASGVPSRFSGSGSGTDFTLTISSLQPEDVATYYCGGYKSYSNDGNGFGGGTKVEIKR
[1]
  IC50 (read off the curve): ~0.9 µg/mL
Human VEGF [2]
  ratio of Kd to that of AVASTIN: 0.01
Human VEGF [3]
  ratio of Kd to that of AVASTIN: 0.01 fold (Kd of EPI0030 / Kd of AVASTIN)
Human VEGF [4]
  Kd: 0.331 nM
Human VEGF [5]
  Kd: 0.638 nM
[6]
  IC50: 0.166 µg/mL
Human VEGF [7]
  Kd: 0.485 nM
[8]
  EC50 (read off the curve): ~0.01 µg/mL

B2: recombinant humanized antibody expressed by the HZD-V5 clone (antibody, V domains shown)
VH: B1 VH with R73K
VL: DIQMTQSPSSLSASVGDRVTINCQASQSVYGNNELSWYQQKPGKPPKLLIYRASTLASGVPSRFSGSGSGTDFTLTISSLQPEDVATYYCGGYKSYSNDGNGFGGGTKVEIK
notes: The pairing of VH-HZD5 with VK-HZD5 for clone HZD-V5 is inferred from the names; Variable domains were cloned onto human CH and human CK
[1]
  IC50 (read off the curve): ~0.9 µg/mL

B3: recombinant humanized antibody expressed by the HZD-V1 clone (antibody, V domains shown)
VH: QQLVESGGGLVKPGGSLRLSCAASGFSFSNNDVMCWVRQAPGKGLEWIGCIMTTDVVTEYANWAKSRFTVSKDSAKNSVYLQMNSLRAEDTAVYFCARDSVGSPLMSFDLWGPGTLVTVSS
VL: B2 VL with D1A, I2L
notes: The pairing of VH-HZD1 with VK-HZD1 for clone HZD-V1 is inferred from the names; Variable domains were cloned onto human CH and human CK
[1]
  IC50 (read off the curve): ~0.9 µg/mL

B4: recombinant humanized antibody expressed by the HZD-V2 clone (antibody, V domains shown)
VH: B3 VH with K72R
VL: B2 VL with D1A, I2L, V29I, G31N
notes: The pairing of VH-HZD2 with VK-HZD2 for clone HZD-V2 is inferred from the names; Variable domains were cloned onto human CH and human CK
[1]
  IC50 (read off the curve): ~0.9 µg/mL
